From the RNAGym collection of RNA variant scans (doi:10.1093/nar/gkz1192)

B1: CPEB3 Ribozyme (parent)
chain: UAACAGGGGGCCACAGCAGAAGCGUUCACGUCGCAGCCCCUGUCAGAUUCUGGUGAAUCUGCGAAUUCUGCUGUAUAUCUC

Variants of: B1
Assay: self-cleavage, relative activity (ratio to wild type); higher = more cleavage; in vitro, sequencing
In short: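 After error-prone PCR and barcoding, CPEB3 ribozyme mutant libraries were transcribed with T7 RNA polymerase at 37°C for 5 hours, then given 15 min with DNase I before an EDTA stop, and they cleaved during both steps. Reverse transcription with template switching preceded Illumina sequencing. Relative activity divides a variant's cleaved/total read fraction by the unmutated ribozyme's. At least 5 reads were required per variant, and three batches were averaged.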

Variant	self-cleavage
UAACAGGGGGCCACAGCAGAAGCGUUCACGUCGCAGCCACUGUCAGAUUCUGGUGAAUCUGCGAAUUCUGCUGUAUAUCUC [C39A]	0.31
UAACAGGGGGCCACAGCAGAAGCGUUCACGUCGCAGCUCCUGUCAGAUUCUGGAGAAUCUGCGAAUUCUGCUGUAUAUCUC [C38U U54A]	0.85
UAACAGGGGGCCACAGCAGAAGCGUUCACGUCGCAGCUCCUGUCAGAUUCUGGCGAAUCUGCGAAUUCUGCUGUAUAUCUC [C38U U54C]	0.68
UAACAGGGGGCCACAGCAGAAGCGUUCACGUCGCAGCUCCUGUCAGAUUCUGGUGGAUCUGCGAAUUCUGCUGUAUAUCUC [C38U A56G]	0.43
UAACAGGGGGCCACAGCAGAAGCGUUCACGUCGCAGCUCCUGUCAGAUUCUGGUGAAUCUGCGAAUUCUGCUGUAUACCUC [C38U U78C]	0.67
UAACAGGGGGCCACAGCAGAAGCGUUCACGUCGCAGCUCCUGUCAGAUUCUGGUGAAUCUGCGAAUUCUGCUGUAUAACUC [C38U U78A]	1.17
UAACAGGGGGCCACAGCAGAAGCGUUCACGUCGCAGCUCCUGUCAGGUUCUGGUGAAUCUGCGAAUUCUGCUGUAUAUCUC [C38U A47G]	0.66
UAACAGGGGGCCACAGCAGAAGCGUUCACGUCGCAGCUCCUGUCAGAUUCUGGUGAAUCUGCGAGUUCUGCUGUAUAUCUC [C38U A65G]	0.32
UAACAGGGGGCCACAGCAGAAGCGUUCACGUCGCAGCGCCUGUCAGAUUCUGGUGAAUCUGCGAAUUCUGCUGUGUAUCUC [C38G A75G]	0.27
UAACAGGGGGCCACAGCAGAAGCGUUCACGUCGCAGCGCCUGUCAGAUUCUGGUGAAUCUGCGAAUUCUGCUGUAUUUCUC [C38G A77U]	0.31
UAACAGGGGGCCACAGCAGAAGCGUUCACGUCGCAGCACCUGUCAGAUUCUGGUGAAUCUGCGAAUUCUGCUGUAUAUCCC [C38A U80C]	0.41
UAACAGGGGGCCACAGCAGAAGCGUUCACGUCGCAGCACCUGUCAGAUUCUGGUGAAUCUGCGAAUUCUGCUGUAUAUCAC [C38A U80A]	0.11
UAACAGGGGGCCACAGCAGAAGCGUUCACGUCGCAGCUCCUGUCAGAUUCUGGUGAAUCUGCGCAUUCUGCUGUAUAUCUC [C38U A64C]	0.82
UAACAGGGGGCCACAGCAGAAGCGUUCACGUCGCAGCUCCUGUCAGAUUCUGGUGAAUCUGCGUAUUCUGCUGUAUAUCUC [C38U A64U]	0.37
UAACAGGGGGCCACAGCAGAAGCGUUCACGUCGCAGCUCCUGUCAGAUUCUGGUGAAUCUGCGGAUUCUGCUGUAUAUCUC [C38U A64G]	0.37
UAACAGGGGGCCACAGCAGAAGCGUUCACGUCGCAGCGCCUGACAGAUUCUGGUGAAUCUGCGAAUUCUGCUGUAUAUCUC [C38G U43A]	0.14
UAACAGGGGGCCACAGCAGAAGCGUUCACGUCGCAGCGCCUGCCAGAUUCUGGUGAAUCUGCGAAUUCUGCUGUAUAUCUC [C38G U43C]	0.34

Variant	self-cleavage
UAACAGGGGGCCACAGCAGAAGCGUUCACGUCGCAGCUCCUGUCAGAUGCUGGUGAAUCUGCGAAUUCUGCUGUAUAUCUC [C38U U49G]	0.37
UAACAGGGGGCCACAGCAGAAGCGUUCACGUCGCAGCUCCUGUCAGAUCCUGGUGAAUCUGCGAAUUCUGCUGUAUAUCUC [C38U U49C]	0.34
UAACAGGGGGCCACAGCAGAAGCGUUCACGUCGCAGCUCCUGUCAGACUCUGGUGAAUCUGCGAAUUCUGCUGUAUAUCUC [C38U U48C]	0.35
UAACAGGGGGCCACAGCAGAAGCGUUCACGUCGCAGCUCCUGUCAGAUUCAGGUGAAUCUGCGAAUUCUGCUGUAUAUCUC [C38U U51A]	0.46
UAACAGGGGGCCACAGCAGAAGCGUUCACGUCGCAGCGCCUGUCAGAUUCUGGUGAAUCUGCGAAUUCUGCUGUAUAUCAC [C38G U80A]	0.26
UAACAGGGGGCCACAGCAGAAGCGUUCACGUCGCAGCGCCUGUCAGAUUCUGGUGAAUCUGCGAAUUCUGCUGUAUAUCCC [C38G U80C]	0.56
UAACAGGGGGCCACAGCAGAAGCGUUCACGUCGCAGCUCCUGCCAGAUUCUGGUGAAUCUGCGAAUUCUGCUGUAUAUCUC [C38U U43C]	0.28
UAACAGGGGGCCACAGCAGAAGCGUUCACGUCGCAGCGCCUGUCAGAUACUGGUGAAUCUGCGAAUUCUGCUGUAUAUCUC [C38G U49A]	0.26
UAACAGGGGGCCACAGCAGAAGCGUUCACGUCGCAGCUCCUGUCAGAUUCUGGUUAAUCUGCGAAUUCUGCUGUAUAUCUC [C38U G55U]	0.8
UAACAGGGGGCCACAGCAGAAGCGUUCACGUCGCAGCUCCUGUCAGAUUCUGGUAAAUCUGCGAAUUCUGCUGUAUAUCUC [C38U G55A]	0.4
UAACAGGGGGCCACAGCAGAAGCGUUCACGUCGCAGCUCCUGUCAGAUUCUGGUGAAUCUGCGAAUUCUUCUGUAUAUCUC [C38U G70U]	0.38
UAACAGGGGGCCACAGCAGAAGCGUUCACGUCGCAGCGCCUGUCAGAUUCUGGUGAAUCUGCGAAUCCUGCUGUAUAUCUC [C38G U67C]	0.11
UAACAGGGGGCCACAGCAGAAGCGUUCACGUCGCAGCUCCUGUCAAAUUCUGGUGAAUCUGCGAAUUCUGCUGUAUAUCUC [C38U G46A]	0.24
UAACAGGGGGCCACAGCAGAAGCGUUCACGUCGCAGCUCCUGUCAGAUUCUGGUGAAUCCGCGAAUUCUGCUGUAUAUCUC [C38U U60C]	0.33
UAACAGGGGGCCACAGCAGAAGCGUUCACGUCGCAGCUCCUGUCAGAUUCUGGUGAAUCGGCGAAUUCUGCUGUAUAUCUC [C38U U60G]	0.25
UAACAGGGGGCCACAGCAGAAGCGUUCACGUCGCAGCUCCUGUCAGAUUCUGGUGAAGCUGCGAAUUCUGCUGUAUAUCUC [C38U U58G]	0.08
UAACAGGGGGCCACAGCAGAAGCGUUCACGUCGCAGCUCCUGUCAGAUUCUGGUGAACCUGCGAAUUCUGCUGUAUAUCUC [C38U U58C]	0.19
